The record followed here is patent US8227418B2 (priority 2004, dated 2012).

Data set [1] has as its target LF (anthrax lethal factor) (Bacillus anthracis, UniProt P15917). It counts as biochemical, B. anthracis.
The test system of the next data set is LeTx intoxication. Further details: species or system Balb/c mice. Particulars: mouse, in vivo, iv.
The subject of data set [2] is anthrax LeTx cytolysis of RAW 264.7 cells.
Data set [3] deals with cleavage of MKK3b by LF in RAW 264.7 macrophages. In kind it is cell-based, murine.
Data set [4] concerns ERK and p38 MAPK phosphorylation in RAW 264.7 cells. It counts as cell-based, murine.

Consider LL-37, for which the “Inhibition of in vitro MKK3b proteolysis by LF” value (from here on “Inhibition … by LF”) in data set [1] is “did not prevent cleavage of MKK3b”. In addition, in the data set with LeTx intoxication, the “Protection of mice from LeTx intoxication (survival)” value is reported as “had no effect on LeTx toxicity”. Also, the “Protection of RAW 264.7 cells against cytotoxicity by LeTx (co-treatment)” value (shortened to “Protection of RAW 264.7 cells … (co-treatment)”) in data set [2] is listed as “did not display any significant effect”.
Consider Magainin I, for which the “Inhibition … by LF” value in data set [1] is recorded as “did not prevent cleavage of MKK3b”.
On to HNP-1, for which the “Inhibition of MKK3b cleavage in LeTx treated cells” value in data set [3] is reported as “efficiently inhibited”. Moreover, in data set [1], the “Inhibition … by LF” value is on record as “proteolysis was efficiently inhibited”. In data set [4], the “Restoration of ERK and p38 phosphorylation inhibited by LeTx” value was “phosphorylation of these two MAPKs was restored”. Besides, in data set [2], the “Prevention of LeTx toxicity by pre-treatment of macrophages” value is on record as “prevented LeTx toxicity in a HNP-1 dose dependent manner”, the “Protection of RAW 264.7 cells 24 hrs after LeTx treatment” value is on record as “protection was observed even 24 hrs after LeTx treatment”, the “Protection of RAW 264.7 cells … (co-treatment)” value is recorded as “completely abolished cytotoxicity” and the “Protection of RAW 264.7 cells from LeTx induced cytotoxicity under serum-supplemented conditions” value is “still protected cells from LeTx induced cytotoxicity”.
With “HNP-2 (CYCRIPACIAGERRYGTCIYQGRLWAFCC; homo sapiens)”, the “Protection of RAW 264.7 cells … (co-treatment)” value in data set [2] is “showed similar protection”.
